Tests used:
[1] = biological target: T1, 14-3-3β (purified alone) (human, UniProt P31946 1-239); assay: fluorescence polarisation; conditions: both partners purified
T1 construct: also called YWHAB (pTvHR21-SGC)
T1 sequence: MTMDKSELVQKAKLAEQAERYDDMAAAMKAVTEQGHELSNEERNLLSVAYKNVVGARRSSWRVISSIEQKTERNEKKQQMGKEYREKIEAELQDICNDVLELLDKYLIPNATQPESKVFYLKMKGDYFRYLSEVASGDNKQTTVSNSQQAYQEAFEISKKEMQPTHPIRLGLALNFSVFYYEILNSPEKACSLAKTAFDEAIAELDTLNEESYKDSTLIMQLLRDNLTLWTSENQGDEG

[2] = biological target: the molecule itself; assay: crystal structure

B1: GFP-ExoS^233-453 (domain or fragment)
chain: ADKALADGLVKRFGADAEKYLGRQPGGIHSDAEVMALGLYTGIHYADLNRALRQGQELDAGQKLIDQGMSAAFEKSGQAEQVVKTFRGTRGGDAFNAVEEGKVGHDDGYLSTSLNPGVARSFGQGTISTVFGRSGIDVSGISNYKNEKEILYNKETDMRVLLSASDEQGVTRRVLEEAALGEQSGHSQGLLDALDLASKPERSGEVQEQDVRLRMRGLDLA
B1 showed a Kd [1] of about 40 nM.

B2: GFP-ExoS^233-435 (domain or fragment)
chain: ADKALADGLVKRFGADAEKYLGRQPGGIHSDAEVMALGLYTGIHYADLNRALRQGQELDAGQKLIDQGMSAAFEKSGQAEQVVKTFRGTRGGDAFNAVEEGKVGHDDGYLSTSLNPGVARSFGQGTISTVFGRSGIDVSGISNYKNEKEILYNKETDMRVLLSASDEQGVTRRVLEEAALGEQSGHSQGLLDALDLASKPERS
B2 showed a Kd [1] of about 70 nM.

B3: 14-3-3β^1–239 (untagged, first co-expression construct) (natural protein)
chain: MTMDKSELVQKAKLAEQAERYDDMAAAMKAVTEQGHELSNEERNLLSVAYKNVVGARRSSWRVISSIEQKTERNEKKQQMGKEYREKIEAELQDICNDVLELLDKYLIPNATQPESKVFYLKMKGDYFRYLSEVASGDNKQTTVSNSQQAYQEAFEISKKEMQPTHPIRLGLALNFSVFYYEILNSPEKACSLAKTAFDEAIAELDTLNEESYKDSTLIMQLLRDNLTLWTSENQGDEG
B3 was tested, and the “stoichiometry N” value [2] was 2.

B4: 14-3-3β truncated after N234 (untagged, re-designed co-expression construct) (domain or fragment, human, UniProt P31946 1-234, looked up)
chain: MTMDKSELVQKAKLAEQAERYDDMAAAMKAVTEQGHELSNEERNLLSVAYKNVVGARRSSWRVISSIEQKTERNEKKQQMGKEYREKIEAELQDICNDVLELLDKYLIPNATQPESKVFYLKMKGDYFRYLSEVASGDNKQTTVSNSQQAYQEAFEISKKEMQPTHPIRLGLALNFSVFYYEILNSPEKACSLAKTAFDEAIAELDTLNEESYKDSTLIMQLLRDNLTLWTSEN
In the case of B4, the “stoichiometry N” value [2] is reported as 2.
